Patent US20090220521A1 (published 2009)

Biological target: recombinant human MIF (macrophage migration inhibitory factor) (human, UniProt P14174 2-115)
Test: Biacore; Fab fragment

recombinant human MIF (macrophage migration inhibitory factor), sequence (P14174 2-115): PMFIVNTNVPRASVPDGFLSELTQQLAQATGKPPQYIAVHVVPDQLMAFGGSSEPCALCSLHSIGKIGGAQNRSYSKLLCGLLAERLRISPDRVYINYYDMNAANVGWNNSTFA

Binder | Kd [nM]
Bax69 (antibody, V domains shown) VH: EVQLLESGGGLVQPGGSLRLSCAASGFTFSIYSMNWVRQAPGKGLEWVSSIGSSGGTTYYADSVKGRFTISRDNSKNTLYLQMNSLRAEDTAVYYCAGSQWLYGMDVWGQGTTVTVSS VL: DIQMTQSPSSLSASVGDRVTITCRSSQRIMTYLNWYQQKPGKAPKLLIFVASHSQSGVPSRFRGSGSETDFTLTISGLQPEDSATYYCQQSFWTPLTFGGGTKVEIK | 55
Bax74 (antibody, V domains shown) VH: EVQLLESGGGLVQPGGSLRLSCAASGFTFSKYYMIWVRQAPGKGLEWVSWIGPSGGFTFYADSVKGRFTISRDNSKNTLYLQMNSLRAEDTAVYYCARGTPDYGGNSLDHWGQGTLVTVSS VL: DIQMTQSPSSLPASVGDRVTITCRASQSIGTYLSWYQHKPGNAPKLLIYATSRLQSGVPSRFSGGGSGTRFTLAISSLQPDDFATYFCQQTYSTPLTFGGGTKVDIK | 93
BaxA10 (antibody, V domains shown) VH: EVQLLESGGGLVQPGGSLRLSCAASGFTFSWYAMDWVRQAPGKGLEWVSGIYPSGGRTKYADSVKGRFTISRDNSKNTLYLQMNSLRAEDTAVYYCARVNVIAVAGTGYYYYGMDVWGQGTTVTVSS VL: DIQMTQSPGTLSLSPGERATLSCRASQGVSSSSLAWYQQKPGQAPRLLIYGTSSRATGIPDRFSGSASGTDFTLTISRLQPEDFAVYYCQQYGRSLTFGGGTKVEIK | 0.4
Bax152 (antibody, V domains shown) VH: EVQLLESGGGLVQPGGSLRLSCAASGFTFSIYAMDWVRQAPGKGLEWVSGIVPSGGFTKYADSVKGRFTISRDNSKNTLYLQMNSLRAEDTAVYYCARVNVIAVAGTGYYYYGMDVWGQGTTVTVSS VL: DIQMTQSPVTLSLSPGERATLSCRASQSVRSSYLAWYQQKPGQTPRLLIYGASNRATGIPDRFSGSGSGTDFTLTISRLEPEDFAVYYCQQYGNSLTFGGGTKVEIK | 16
anti-MIF antibody Bax94 (antibody, V domains shown) VH: EVQLLESGGGLVQPGGSLRLSCAASGFTFSIYAMDWVRQAPGKGLEWVSGIVPSGGFTKYADSVKGRFTISRDNSKNTLYLQMNSLRAEDTAVYYCARVNVIAVAGTGYYYYGMDVWGQGTTVTVSS VL: DIQMTQSPGTLSLSPGERATLSCRASQGVSSSSLAWYQQKPGQAPRLLIYGTSSRATGIPDRFSGSASGTDFTLTISRLQPEDFAVYYCQQYGRSLTFGGGTKVEIK | 4
